Assay results as given in US20210198647A1, “Enhancers of Neurolysin Activity” (Texas Tech University System, priority 2018, published 2021).

Assays:
[1] = biological target: mouse plasma proteins; assay: rapid equilibrium dialysis (RED), mouse plasma, 500 ng/mL
[2] = biological target: N-terminal polyhistidine tagged recombinant rat neurolysin (rat) (UniProt P42676); assay: cell-based or functional assay

Row | fu in Plasma (fraction unbound) [1] | formation of angiotensin-(1-7) from angiotensin I (20 µM), mass spectrometry, 100 µM modulator [2] [fold] | formation of bradykinin-(1-5) from bradykinin (20 µM), mass spectrometry, 100 µM modulator [2] [fold] | formation of neurotensin-(1-10) from neurotensin (20 µM), mass spectrometry, 100 µM modulator [2] [fold] | Substance
1 | 0.93 | – | – | – | His-Trp (peptide)
2 | 0.66 | 6 | 2 | 3 | NlnA#1, NSC 374121, L-histidyl-L-tyrosine (peptide)
3 | – | 6 | 2 | 3 | NlnA#2, NSC 523374, D,L-histidyl-D,L-histidine (peptide)
